Broadly, the Ki is a measure of affinity in units of concentration, obtained from inhibition or displacement. Lower therefore signals tighter binding.

No end group written: not given here.

The target in assay [1] is T1, rat GalR3 receptor (rat, UniProt O88626 1-370).
T1 construct: Full-length receptor (370 amino acids) expressed from pCR3.1 in COS-7 cells; The assay used membrane preparations of the transfected cells; also called rat type 3 galanin receptor; cellular receptors
T1 chain: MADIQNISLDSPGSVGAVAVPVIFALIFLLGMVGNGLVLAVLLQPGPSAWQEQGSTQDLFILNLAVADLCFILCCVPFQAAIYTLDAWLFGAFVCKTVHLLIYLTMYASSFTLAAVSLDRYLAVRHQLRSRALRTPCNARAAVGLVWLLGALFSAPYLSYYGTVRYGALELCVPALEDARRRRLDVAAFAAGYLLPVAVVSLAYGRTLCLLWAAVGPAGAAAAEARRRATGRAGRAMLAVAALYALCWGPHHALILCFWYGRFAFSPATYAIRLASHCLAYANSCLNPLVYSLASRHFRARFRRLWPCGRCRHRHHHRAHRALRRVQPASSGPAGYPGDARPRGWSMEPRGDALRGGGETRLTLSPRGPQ
As to the kind of experiment: competition with 0.3 nM 125I-porcine galanin on membranes of COS-7 cells transfected with rat GalR3; filtration; Cheng-Prusoff. On the procedure: (§1) Binding of ¹²⁵I-porcine-galanin to the membrane preparations was performed in a buffer containing 25 mM Tris-Cl (pH7.4), 1% bovine serum albumin (w/v), 0.1% bacitracin, 2 μg/ml leupeptin and 10 mM MgCl₂. Ligand saturation plots were performed using 20 μg amounts of the membrane protein in a total volume of 200 μl using 3 μM cold galanin to determine nonspecific binding. Peptide competition studies were performed in a total volume of 200 μl, containing 20 μg of membrane protein and 0.3 nM ¹²⁵I-porcine galanin. Incubations were carried out at room temperature for 1 hour and were terminated by rapid vacuum filtration through MULTISCREEN FB (glass fiber B) Filter Plates (Millipore, Bedford, Mass.) which had been pre-treated with 0.30% polyethylenimine to prevent non-specific binding of the radioligand to the filter. The filters were then washed three times with 100 μl of PBS (pH7.4). All data were analyzed using non-linear regression software (Prism, GraphPad, San Diego, Calif.), and the Ki was calculated using the method of Cheng and Prusoff [Biochem. Pharmacol. 22:3099-3108 (1973)].
The curves shown indicate the fits of the data points by nonlinear regression for one-site binding.

Assay [2] deals with T1, rat GalR3 receptor. As to the kind of experiment: radioligand binding to membranes of COS-7 cells transfected with rat GalR3. On the procedure:
as §1

With LLGPHAIDNHR [galanin(10-20)], the Ki in the assay with rat GalR3 receptor [1] was more than 1000 nM.

B1: rat galanin(2-29) (peptide, UniProt P10683 34-61, looked up)
peptide: WTLNSAGYLLGPHAIDNHRSFSDKHGLT
notes: range 2-29; also called Rat galanin 92-29
Consider B1, for which, in the assay with rat GalR3 receptor [1], the Ki worked out at 14 nM.

On to GWTLNSAGYLLGPHAIDNHRSFSDKHGLT (ligand, UniProt P10683 33-61, looked up, also called galanin itself) [rat galanin], for which the Ki with rat GalR3 receptor [1] was 1.2 nM.

On to TLNSAGYLLGPHAIDNHRSFSDKHGLT (peptide, UniProt P10683 35-61, looked up, range 3-29) [rat galanin(3-29)], for which the Ki with rat GalR3 receptor [1] is more than 1000 nM.

B2: 125I-porcine galanin (ligand, UniProt P07480 33-61, looked up)
peptide: GWTLNSAGYLLGPHAIDNHRSFHDKYGLA
modifications: ends and bridges not checked; also: 125I radiolabel, residue not given here
notes: Bought radioligand; also called labeled galanin
Regarding B2, the binding result in the assay with rat GalR3 receptor [2] is given as “binds”.

The values are drawn from patent US20090075297A1 (SCHERING, published 2009).
